Experimental data: the supplement of paper PMC10567573

B1: TMEM175 (parent)
chain: QTSAFARQPRDELERVRVSCTIIF
B2: EHMT1 (parent)
chain: SARQGELQKVLLMLVDGIDPNFKM

Variants of: B1
Assay: protein stability index of a GFP-peptide fusion (GPS, HEK-293T) (PSI 1-6); higher = more stable
Details: c terminus: a fixed tail appended
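Note: lentivirally expressed fusions sorted by FACS into six bins by GFP to DsRed ratio, PSI derived from sequencing read proportions per bin multiplied by bin number.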

Protein stability index, by site and new letter:
R17: L 4.15, N 3.17, I 2.2, D 2.58, Q 3.06, Y 4.15, S 2.35, G 2.53, A 3.04, M 2.91, F 2, C 1.28, E 2.92, H 2.73, P 2.09
E12: M 1.89, S 2.72, F 1.76, Q 1.9, I 2.56, Y 2.81, T 2.95, H 2.73, W 1.9, C 2.24, A 3.94, D 2.16, K 2.07
V16: A 2.06, K 1.97, Y 2.81, F 2, W 2.56, S 1.83, T 1.4, G 1.14, E 2.22, M 1.16, D 1.98, Q 2.53, N 2.04, R 2.47, L 1.91, H 2.65, I 2.63
Q1: Y 3.11, G 3.41, P 2.32, D 1.63, K 2.24, S 2.17, L 1.38, F 3.36, H 1.6, M 1.64, N 3.4, A 3.97, E 2.25
V18: A 2.53, D 2.02, M 1.88, P 2.47, Y 2.11, K 2.41, W 2.19, H 1.83, E 2.31, C 1.82, G 1.79, N 2.35, L 1.08, R 1.57, T 2.2, S 2.23, Q 1.71, F 2.17, I 2.49
A6: D 2.35, H 2.09, T 1.44, R 1.84, M 1.74, N 2.57, C 3.04, F 1.36, E 3.06, V 2.9, L 1.6, W 2.34, K 2.11, Y 2.68
R10: V 2.03, C 2.79, S 2.4, I 2.06, E 2.31, W 3.68, K 3.68, N 2.57, Y 2.65, Q 3.27, M 2.35, T 2.48, P 2.87, A 2.28, D 2.48, H 2.4
P9: Y 2.83, N 2.67, H 2.88, K 1.03, Q 1.71, I 2.44, V 3.32, G 2.81, R 1.91, D 2.03, W 2.31, L 2.43, E 3.41, S 1.15, F 2.38, T 2.67
S19: A 1.55, N 3.03, H 2.13, F 1.57, I 1.73, L 1.78, P 1.6, G 2.74, M 2.94, C 1.97
T2: Q 4.14, W 3.26, N 1.66, S 3.61, H 2.22, F 2.49, L 1.55, D 3.37, A 1.83, M 1.89, Y 3.16
E14: F 3.09, P 3.5, V 2.86, Y 3.27, N 1.1, R 2.03, Q 2.93, W 2.96, D 1.84, A 1.67
Q8: T 2, Y 2.14, R 3.17, D 2.12, A 1.48, G 4.14, M 3.58, I 2.01, W 2.58, C 3.32, P 2.1, V 1.56, L 1.87, H 2.68
L13: M 2.23, E 1.83, N 1.55, F 3.31, C 3.23, G 1.59, K 1.64, W 2.89, P 2.37, Q 1.27, D 1.3, Y 4.09, T 1.99, S 2, V 2.53, R 2.76, I 1.54
R15: I 3.42, L 3.73, M 2.04, W 3.37, P 2.19, A 3.73, E 3.77, N 4.18, T 5.08, G 3.8, V 2.81, K 3.37, Q 1.77, D 1.79, Y 3.62, C 1.88, F 2.54
F5: E 1.91, N 1.65, I 1.72, R 1.38, D 1.69, Q 2.27, Y 2.54, C 4.13, K 1.34, T 2.01, S 1.94, L 1.9, A 1.75, H 1.48, V 2.15, M 2.25, P 2.48
S3: R 1.06, Q 2.21, Y 2.69, L 1.05, I 2.13, K 2.62, E 2.02, F 2.04, G 1.91, W 2.24, N 2.02, H 1.69, A 3.58, M 3.41
A4: I 1.96, V 1.7, M 3.56, T 2.06, P 3.2, L 3.63, N 1.5, K 1.26, E 2.9, F 1.88, H 1.46, S 3.97, D 3.36, R 2.89, Y 1.46, G 2.95
R7: T 2.68, I 2.42, Q 1.6, K 2.08, E 1.91, C 3.01, F 2.53, Y 1.58, V 1.33, A 2.46, D 2.01, L 2.48, M 2.66
D11: G 3.67, T 4.12, S 2.81, A 3.09, Q 2.47, C 2.58, N 3.52, P 2.6, Y 3.09, L 3.31, E 2.73, V 2.38, K 3.33

Variants of: B2
Assay: as above
Details: c terminus: a fixed tail appended

Protein stability index: each site, then its substitutions
M24: Y 1.9, H 1.19, E 2.18, T 1.42, C 2.05, G 1.23, Q 1.84, R 1.8, I 1.77, P 2.6, N 1.48, K 2.42, L 1.93, A 2.04, D 3.33
K23: R 2.82, H 2.78, L 1.88, Q 2.39, D 2.17, A 2.4, P 2.18, N 1.3, I 1.59, V 2.81, E 1.21, Y 1.94, T 2.02, G 1.19
N21: L 3.55, R 1.26, Q 1.41, W 3.96, T 1.98, K 1.96, G 3.57, I 1.93, Y 2.93, H 1.97, M 2.24
F22: M 1.13, P 1.76, R 1.52, W 2.49, E 2.69, I 2.09, L 1.83, V 1.18, N 1.56, T 2.21, S 2.71, Q 1.76, H 1.56, G 2.71, Y 1.39, D 2.01, C 1.82, K 1.89, A 1.65
